“Also recorded” adds a separate entry of the source. Like-named read-outs stand apart in the source and are kept apart here.
Columns and labels:
[1] = system: cultured rat hippocampal neurons; settings: for signal-to-noise ratio (SNR) for single APs: 640 nm; for photobleaching time constant: continuous illumination 640 nm; for broadening of optically recorded AP relative to electrical waveform at 70% maximum depolarization: room temperature, 2 kHz frame rate; for r.m.s. temporal jitter of AP timing relative to patch clamp: sub-frame interpolation
HEK293 cells = assay: Optical crosstalk of blue illumination into QuasAr fluorescence; format: cell-based; settings: continuous 640 nm 300 W/cm^2
Text: FIGS. 5A-5B show the quantification of optical crosstalk of blue illumination into QuasAr fluorescence. Illumination sufficient to induce high-frequency trains of action potentials (488 nm, 140 mW/cm2) perturbed fluorescence of QuasArs by <1%. […] HEK293 cells expressing QuasAr1 or QuasAr2 were exposed to continuous excitation at 640 nm (300 W/cm^2) and pulses of illumination at 488 nm (50 ms, 5 Hz). The intensity of the blue pulses increased from 0.06 to 1.8 W/cm^2. […] Illumination with blue light at typical intensity used to excite a blue-light activator (CheRiff) (0.2 W/cm^2) increased QuasAr1 fluorescence by 1.1% and QuasAr2 fluorescence by 0.6%. Illumination at with blue light at 1 W/cm^2 increased QuasAr1 fluorescence by 3.4% and QuasAr2 fluorescence by 2.4%. Error bars represent s.e.m. for n=5 cells for each QuasAr.

[2] = system: cultured rat hippocampal neurons; assay: Photocurrent in cultured rat hippocampal neurons; format: cell-based; settings: for photocurrent (in words): red (640 nm, 300 W/cm^2, tested up to 900 W/cm^2) or blue (488 nm, 500 mW/cm^2) illumination; for photocurrent: red illumination (640 nm, 300 W/cm^2)
Experimental: FIGS. 4A-4B show the photophysics of QuasArs in mammalian cells. […] Steady state photocurrents were calculated by averaging the current over the last 0.25 seconds of light exposure and subtracting the holding current (cells held at −65 mV) in the dark. These currents hyperpolarized cells by 25±4 mV and 19±3 mV, respectively. […] The double mutants had mutations at the locations of the proton acceptor (Asp95) and proton donor (Asp106) to the Schiff base. QuasAr1 includes mutations D95H, D106H, and QuasAr2 includes mutations D95Q, D106H. The three additional backbone mutations in the QuasArs (P60S, T80S, F161V) increased brightness relative to the double mutants, Fluorescence of each Arch mutant was measured with excitation at 640 nm and emission from 660-760 nm. To control for variation in expression level, fluorescence was normalized by eGFP fluorescence (λexc=488 nm, λem=510−550 nm). Error bars represent s.e.m. for measurements on n=5-10 cells.
Measurements were performed on primary cultures at 13-15 DIV. Experiments were conducted in Tyrode's solution containing 125 mM NaCl, 2.5 mM KCl, 3 mM CaCl2, 1 mM MgCl2, 10 mM HEPES, 30 mM glucose (pH 7.3) and adjusted to 305-310 mOsm with sucrose. Prior to imaging, neurons were incubated with 5 μM all-trans retinal for 30 minutes and then washed with Tyrode's solution.
Synaptic blockers were added to the imaging medium for measurements of single-cell electrophysiology (Arch photocurrents, and single-cell excitability). The blockers comprised NBQX (10 μM, Tocris), D(−)-2-amino-5-phosphonovaleric acid (APS; […]), and gabazine (SR-95531, 20 μM, Tocris). For measurements of channel rhodopsin photocurrents in neurons, TTX (1 μM, Tocris) was included along with the synaptic blockers to prevent recruitment of voltage gated sodium channels. […] Recordings were terminated if membrane resistance changed by >10%. Experiments were performed at 23° C. under ambient atmosphere unless otherwise noted.

[3] = Quantum yield of solubilized protein (Cy5 reference); format: physicochemical; settings: for Quantum yield / Quantum yield relative to Arch D95N: excitation at 600 nm
Experimental: Solubilization and spectroscopic characterization of QuasAr1 and QuasAr: E. coli expressing QuasAr1 and QuasAr2 were grown in 12 mL LB medium with 200 μg/ml ampicillin overnight. The next day, 12 mL of liquid LB medium containing 50 μM retinal, 200 μg/ml ampicillin and 0.1% arabinose was added into the overnight culture, followed by additional incubation at 37° C. for 4 hours. The cell pellets were collected by centrifugation and lysed by suspension in B-PER solution (Pierce). The cytoplasmic fraction was discarded after centrifugation and the colored insoluble fraction was resuspended in phosphate buffered saline (PBS) containing 1.5% n-dodecyl-β-D-maltopyranoside (Affymetrix, Inc.). The suspension was homogenized by an ultrasonic homogenizer and centrifuged (17,000 g for 15 mins, 4° C.). The solubilized protein in the supernatant was used for in vitro spectroscopic characterization.
Absorption spectra were recorded on a DU-800 UV-visible spectrophotometer (Beckman) and fluorescence spectra were recorded on a Safire2 plate reader (Tecan). Cy5 carboxylic acid (Cyandye) was used as the reference for quantum yield measurement. Quantum yield measurements were performed on a series of dilutions of each protein solution and standard, with absorbance values ranging from 0.01 to 0.05 at 600 nm. The fluorescence emission spectra of each dilution were recorded with excitation at 600 nm and the total fluorescence intensities obtained by integration. Integrated fluorescence intensity vs. absorbance was plotted for each protein and each standard. Quantum yields, Φ, were determined from the slopes (S) of each line using the equation: Φprotein=Φstandard×(Sprotein/Sstandard).

B1: QuasAr1: Archaerhodopsin 3 variant with mutations P60S, T80S, D95H, D106H, F161V; genetically encoded voltage indicator (protein)
chain: MDPIALQAGYDLLGDGRPETLWLGIGTLLMLIGTFYFLVRGWGVTDKDAREYYAVTILVSGIASAAYLSMFFGIGLTEVSVGGEMLDIYYARYAHWLFTTPLLLLHLALLAKVDRVTIGTLVGVDALMIVTGLIGALSHTAIARYSWWLFSTICMIVVLYVLATSLRSAAKERGPEVASTFNTLTALVLVLWTAYPILWIIGTEGAGVVGLGIETLLFMVLDVTAKVGFGFILLRSRAILGDTEAPEPSAGADVSAAD
- equivalent electrical noise level ([1]; 300 W/cm^2): 4.3 mV
- signal-to-noise ratio (SNR) for single APs ([1]; 300 W/cm^2, 1 kHz frame rate): 21±2
- signal-to-noise ratio (SNR) for single APs ([1]; 800 W/cm^2, 1 kHz frame rate): 32±4
- equivalent electrical noise level ([1]; 800 W/cm^2): 3.0 mV
- photobleaching time constant ([1]; 300 W/cm^2): 440 s
- r.m.s. error in timing ([1]; optically induced APs, soma, sub-frame interpolation vs patch clamp): 54 μs
- broadening of optically recorded AP relative to electrical waveform at 70% maximum depolarization ([1]; mean±s.d.): did not introduce detectable broadening
- r.m.s. temporal jitter of AP timing relative to patch clamp [1]: 44 μs
- increase of fluorescence by blue light (HEK293 cells; 488 nm 0.2 W/cm^2): 1.1%
- increase of fluorescence by blue light (HEK293 cells; 488 nm 1 W/cm^2): 3.4%
- photocurrent (in words) [2]: Neither QuasAr1 nor QuasAr2 generated detectable photocurrent; also recorded: Neither QuasAr1 (n=9 cells) nor QuasAr2 (n=7 cells) generated detectable photocurrents
- photocurrent [2]: 0 pA
- fluorescence quantum yield enhanced relative to Arch(D95N) [3]: 19 fold
- Quantum yield [3]: 8 × 10^−3
- Quantum yield relative to Arch D95N [3]: 19

B2: QuasAr2: Archaerhodopsin 3 variant with mutations P60S, T80S, D95Q, D106H, F161V; genetically encoded voltage indicator (protein)
chain: MDPIALQAGYDLLGDGRPETLWLGIGTLLMLIGTFYFLVRGWGVTDKDAREYYAVTILVSGIASAAYLSMFFGIGLTEVSVGGEMLDIYYARYAQWLFTTPLLLLHLALLAKVDRVTIGTLVGVDALMIVTGLIGALSHTAIARYSWWLFSTICMIVVLYVLATSLRSAAKERGPEVASTFNTLTALVLVLWTAYPILWIIGTEGAGVVGLGIETLLFMVLDVTAKVGFGFILLRSRAILGDTEAPEPSAGADVSAAD
- single-trial SNR ([1]; 34° C., 640 nm 300 W/cm^2): 41±3
- broadening of optically recorded AP relative to electrical waveform ([1]; 34° C., mean±s.d.): 180±120 μs
- equivalent electrical noise level ([1]; 300 W/cm^2): 2.2 mV
- signal-to-noise ratio (SNR) for single APs ([1]; 300 W/cm^2, 1 kHz frame rate): 41±4
- equivalent electrical noise level ([1]; 800 W/cm^2): 1.5 mV
- photobleaching time constant ([1]; 300 W/cm^2): 1020 s
- fidelity of AP reporting (red light phototoxicity test) ([1]; continuous illumination at 300 W/cm^2, 30 min): 100%
- broadening of optically recorded AP relative to electrical waveform at 70% maximum depolarization ([1]; mean±s.d.): 650±150 μs
- r.m.s. temporal jitter of AP timing relative to patch clamp [1]: 61 μs
- increase of fluorescence by blue light (HEK293 cells; 488 nm 0.2 W/cm^2): 0.6%
- increase of fluorescence by blue light (HEK293 cells; 488 nm 1 W/cm^2): 2.4%
- photocurrent (in words) [2]: Neither QuasAr1 nor QuasAr2 generated detectable photocurrent; also recorded: Neither QuasAr1 (n=9 cells) nor QuasAr2 (n=7 cells) generated detectable photocurrents
- photocurrent [2]: 0 pA
- fluorescence quantum yield enhanced relative to Arch(D95N) [3]: 10 fold
- Quantum yield [3]: 4 × 10^−3
- Quantum yield relative to Arch D95N [3]: 10
